The values that follow come from paper PMC6461443, “Complement C4 Prevents Viral Infection through Capsid Inactivation” (Cell Host & Microbe, 2019).

This experiment concerns the target T1, Ad5 hexon, in the virion (human adenovirus 5, UniProt P04133 1-952).
T1 construct: source: in Ad5 (E1/E3 deleted) virions, bought: ViraQuest
The experiment in a line: co-IP. As to conditions: both partners purified.

T1 sequence (P04133 whole entry): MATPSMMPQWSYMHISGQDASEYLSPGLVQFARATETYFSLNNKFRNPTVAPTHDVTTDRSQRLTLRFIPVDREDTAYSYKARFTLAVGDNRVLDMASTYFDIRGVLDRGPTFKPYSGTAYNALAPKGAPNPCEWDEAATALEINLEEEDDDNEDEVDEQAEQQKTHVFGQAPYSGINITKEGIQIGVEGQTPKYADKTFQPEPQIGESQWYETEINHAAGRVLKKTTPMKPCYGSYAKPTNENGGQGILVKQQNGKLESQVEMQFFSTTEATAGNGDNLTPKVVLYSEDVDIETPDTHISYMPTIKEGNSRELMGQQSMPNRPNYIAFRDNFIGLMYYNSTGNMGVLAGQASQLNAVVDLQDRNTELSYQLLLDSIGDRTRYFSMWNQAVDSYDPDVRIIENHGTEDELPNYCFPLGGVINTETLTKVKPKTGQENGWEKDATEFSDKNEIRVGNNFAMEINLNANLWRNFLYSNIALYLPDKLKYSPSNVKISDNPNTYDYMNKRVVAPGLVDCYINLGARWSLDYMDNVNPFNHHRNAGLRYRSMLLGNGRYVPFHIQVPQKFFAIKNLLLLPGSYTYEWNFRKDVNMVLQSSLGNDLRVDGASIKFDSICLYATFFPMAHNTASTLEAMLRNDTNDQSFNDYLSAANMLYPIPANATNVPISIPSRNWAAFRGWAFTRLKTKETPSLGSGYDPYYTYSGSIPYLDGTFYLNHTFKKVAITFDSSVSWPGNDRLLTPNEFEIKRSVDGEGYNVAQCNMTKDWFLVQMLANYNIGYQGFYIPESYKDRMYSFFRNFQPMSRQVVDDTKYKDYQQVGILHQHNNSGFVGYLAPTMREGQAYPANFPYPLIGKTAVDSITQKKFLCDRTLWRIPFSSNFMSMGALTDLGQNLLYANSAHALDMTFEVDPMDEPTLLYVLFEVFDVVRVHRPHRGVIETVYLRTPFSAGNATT

B1: Ad5 fiber protein (natural protein)
chain: MKRARPSEDTFNPVYPYDTETGPPTVPFLTPPFVSPNGFQESPPGVLSLRLSEPLVTSNGMLALKMGNGLSLDEAGNLTSQNVTTVSPPLKKTKSNINLEISAPLTVTSEALTVAAAAPLMVAGNTLTMQSQAPLTVHDSKLSIATQGPLTVSEGKLALQTSGPLTTTDSSTLTITASPPLTTATGSLGIDLKEPIYTQNGKLGLKYGAPLHVTDDLNTLTVATGPGVTINNTSLQTKVTGALGFDSQGNMQLNVAGGLRIDSQNRRLILDVSYPFDAQNQLNLRLGQGPLFINSAHNLDINYNKGLYLFTASNNSKKLEVNLSTAKGLMFDATAIAINAGDGLEFGSPNAPNTNPLKTKIGHGLEFDSNKAMVPKLGTGLSFDSTGAITVGNKNNDKLTLWTTPAPSPNCRLNAEKDAKLTLVLTKCGSQILATVSVLAVKGSLAPISGTVQSAHLIIRFDENGVLLNNSFLDPEYWNFRNGDLTEGTAYTNAVGFMPNLSAYPKSHGKTAKSNIVSQVYLNGDKTKPVTLTITLNGTQETGDTTPSAYSMSFSWDWSGHNYINEIFATSSYTFSYIAQE
notes: source: in Ad5 (E1/E3 deleted) virions, bought: ViraQuest
Turning to B1, the binding result is reported as “binds”.

B2: Ad5 penton base (natural protein)
chain: MRRAAMYEEGPPPSYESVVSAAPVAAALGSPFDAPLDPPFVPPRYLRPTGGRNSIRYSELAPLFDTTRVYLVDNKSTDVASLNYQNDHSNFLTTVIQNNDYSPGEASTQTINLDDRSHWGGDLKTILHTNMPNVNEFMFTNKFKARVMVSRLPTKDNQVELKYEWVEFTLPEGNYSETMTIDLMNNAIVEHYLKVGRQNGVLESDIGVKFDTRNFRLGFDPVTGLVMPGVYTNEAFHPDIILLPGCGVDFTHSRLSNLLGIRKRQPFQEGFRITYDDLEGGNIPALLDVDAYQASLKDDTEQGGGGAGGSNSSGSGAEENSNAAAAAMQPVEDMNDHAIRGDTFATRAEEKRAEAEAAAEAAAPAAQPEVEKPQKKPVIKPLTEDSKKRSYNLISNDSTFTQYRSWYLAYNYGDPQTGIRSWTLLCTPDVTCGSEQVYWSLPDMMQDPVTFRSTRQISNFPVVGAELLPVHSKSFYNDQAVYSQLIRQFTSLTHVFNRFPENQILARPPAPTITTVSENVPALTDHGTLPLRNSIGGVQRVTITDARRRTCPYVYKALGIVSPRVLSSRTF
notes: as for B1
Take B2: the binding result is given as “binds”.
